Measured values taken from patent publication US5929223.

Biological target: T1, dCREB2-a (Drosophila melanogaster) (UniProt Q9VWW0)
T1 sequence: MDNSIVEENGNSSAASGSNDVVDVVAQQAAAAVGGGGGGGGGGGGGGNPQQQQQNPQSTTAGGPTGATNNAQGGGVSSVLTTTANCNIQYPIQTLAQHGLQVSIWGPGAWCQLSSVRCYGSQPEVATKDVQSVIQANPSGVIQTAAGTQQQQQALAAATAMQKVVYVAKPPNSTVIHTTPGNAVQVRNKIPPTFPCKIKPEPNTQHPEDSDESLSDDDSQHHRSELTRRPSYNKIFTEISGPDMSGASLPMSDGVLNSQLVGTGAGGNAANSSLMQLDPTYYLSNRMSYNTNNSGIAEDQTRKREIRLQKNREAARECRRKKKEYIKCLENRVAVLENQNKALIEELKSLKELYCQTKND
Experiment: cell_activity
Settings: F9 cells, with PKA, relative to PKA alone

“D(-71) CAT somatostatin promoter CRE fragment” gave an activity of 5.4 fold.
